Results reported in patent US20190321478A1 (published 2019).

T1: MAGEA1 (peptide MAGEA1-003) peptide on HLA-A*02:01 (human)
T1 peptide: KVLEYVIKV

T2: PTRF (peptide code PTRF-001) peptide on HLA-A*02:01 (human)
T2 peptide: KLLEKVRKV

T3: NSD1 (peptide code NSD1-001) peptide on HLA-A*02:01 (human)
T3 peptide: KVQEQVHKV

T4: TBC1D9 (peptide code TBC1D9-002) peptide on HLA-A*02:01 (human)
T4 peptide: LLLPDVIKV

T5: RASAL2 (peptide code RASAL2-002) peptide on HLA-A*02:01 (human)
T5 peptide: SVLEPVISV

T6: TMTC4 (peptide code TMTC4-001) peptide on HLA-A*02:01 (human)
T6 peptide: NVLEIVQKV

T7: KIAA103 (peptide code KIAA103-002) peptide on HLA-A*02:01 (human)
T7 peptide: KVLNKVITV

T8: GALNTL4 (peptide code GALNTL4-001) peptide on HLA-A*02:01 (human)
T8 peptide: KLTEYVDKV

T9: EPAS (peptide code EPAS-001) peptide on HLA-A*02:01 (human)
T9 peptide: KALEGFIAV

T10: PSME2 (peptide code PSME2-001) peptide on HLA-A*02:01 (human)
T10 peptide: KVLERVNAV

T11: TMEM175 (peptide code TMEM175-001) peptide on HLA-A*02:01 (human)
T11 peptide: ILLPYVSKV

B1: R26P1A9 (TCR, V domains shown)
Valpha: SQQGEEDPQALSIQEGENATMNCSYKTSINNLQWYRQNSGRGLVHLILIRSNEREKHSGRLRVTLDTSKKSSSLLITASRAADTASYFCLIGASGSRLTFGEGTQLTVNP
Vbeta: DAGVIQSPRHEVTEMGQEVTLRCKPISGHDYLFWYRQTMMRGLELLIYFNNNVPIDDSGMPEDRFSAKMPNASFSTLKIQPSEPRDSAVYFCASSYFGWNEKLFFGSGTQLSVL
B2: R26P3H1 (TCR, V domains shown)
Valpha: AQSVAQPEDQVNVAEGNPLTVKCTYSVSGNPYLFWYVQYPNRGLQFLLKYITGDNLVKGSYGFEAEFNKSQTSFHLKKPSALVSDSALYFCAVRDMNRDDKIIFGKGTRLHILP
Vbeta: DGGITQSPKYLFRKEGQNVTLSCEQNLNHDAMYWYRQDPGQGLRLIYYSQIVNDFQKGDIAEGYSVSREKKESFPLTVTSAQKNPTAFYLCASSRAEGGEQYFGPGTRLTVT
B3: R59P2E7 (TCR, V domains shown)
Valpha: KQEVTQIPAALSVPEGENLVLNCSFTDSAIYNLQWFRQDPGKGLTSLLLIQSSQREQTSGRLNASLDKSSGRSTLYIAASQPGDSATYLCAVNSDYKLSFGAGTTVTVRA
Vbeta: AAGVIQSPRHLIKEKRETATLKCYPIPRHDTVYWYQQGPGQDPQFLISFYEKMQSDKGSIPDRFSAQQFSDYHSELNMSSLELGDSALYFCASSLGLGTGDYGYTFGSGTRLTVV
B4: R26P2A6 (TCR, V domains shown)
Valpha: QKEVEQDPGPLSVPEGAIVSLNCTYSNSAFQYFMWYRQYSRKGPELLMYTYSSGNKEDGRFTAQVDKSSKYISLFIRDSQPSDSATYLCAMSDVSGGYNKLIFGAGTRLAVHP
Vbeta: EAQVTQNPRYLITVTGKKLTVTCSQNMNHEYMSWYRQDPGLGLRQIYYSMNVEVTDKGDVPEGYKVSRKEKRNFPLILESPSPNQTSLYFCASTTPDGTDEQFFGPGTRLTVL
B5: R42P3A9 (TCR, V domains shown)
Valpha: GIQVEQSPPDLILQEGANSTLRCNFSDSVNNLQWFHQNPWGQLINLFYIPSGTKQNGRLSATTVATERYSLLYISSSQTTDSGVYFCAVHNFNKFYFGSGTKLNVKP
Vbeta: AAGVIQSPRHLIKEKRETATLKCYPIPRHDTVYWYQQGPGQDPQFLISFYEKMQSDKGSIPDRFSAQQFSDYHSELNMSSLELGDSALYFCASSLLGQGYNEQFFGPGTRLTVL
B6: R37P1H1 (TCR, V domains shown)
Valpha: AQTVTQSQPEMSVQEAETVTLSCTYDTSESNYYLFWYKQPPSRQMILVIRQEAYKQQNATENRFSVNFQKAAKSFSLKISDSQLGDTAMYFCAFGYSGGGADGLTFGKGTHLIIQP
Vbeta: DAGVTQSPTHLIKTRGQQVTLRCSPKSGHDTVSWYQQALGQGPQFIFQYYEEEERQRGNFPDRFSGHQFPNYSSELNVNALLLGDSALYLCASSNEGQGWEAEAFFGQGTRLTVV

Target: T1, MAGEA1 (peptide MAGEA1-003) peptide on …
Experiment: multimer staining

| binding result | Binder |
| --- | --- |
| recognises | B1 |
| recognises | B2 |
| recognises | B3 |
| recognises | B4 |
| recognises | B5 |
| recognises | B6 |

Target: T2, PTRF (peptide code PTRF-001) peptide on …
Experiment: cytokine release

| binding result | Binder |
| --- | --- |
| no recognition | B1 |
| no recognition | B2 |
| no recognition | B3 |
| no recognition | B4 |
| no recognition | B5 |
| no recognition | B6 |

Target: T3, NSD1 (peptide code NSD1-001) peptide on …
Experiment: cytokine release

| binding result | Binder |
| --- | --- |
| no recognition | B1 |
| no recognition | B2 |
| no recognition | B3 |
| no recognition | B4 |
| no recognition | B5 |
| no recognition | B6 |

Target: T4, TBC1D9 (peptide code TBC1D9-002) …
Experiment: cytokine release

| binding result | Binder |
| --- | --- |
| no recognition | B1 |
| no recognition | B2 |
| no recognition | B3 |
| no recognition | B4 |
| no recognition | B5 |
| no recognition | B6 |

Target: T5, RASAL2 (peptide code RASAL2-002) …
Experiment: cytokine release

| binding result | Binder |
| --- | --- |
| no recognition | B1 |
| no recognition | B2 |
| no recognition | B3 |
| no recognition | B4 |
| no recognition | B5 |
| no recognition | B6 |

Target: T6, TMTC4 (peptide code TMTC4-001) peptide …
Experiment: cytokine release

| binding result | Binder |
| --- | --- |
| no recognition | B1 |
| no recognition | B2 |
| no recognition | B3 |
| no recognition | B4 |
| no recognition | B5 |
| no recognition | B6 |

Target: T7, KIAA103 (peptide code KIAA103-002) …
Experiment: cytokine release

| binding result | Binder |
| --- | --- |
| no recognition | B1 |
| no recognition | B2 |
| no recognition | B3 |
| no recognition | B4 |
| no recognition | B5 |
| no recognition | B6 |

Target: T8, GALNTL4 (peptide code GALNTL4-001) …
Experiment: cytokine release

| binding result | Binder |
| --- | --- |
| no recognition | B1 |
| no recognition | B2 |
| no recognition | B3 |
| no recognition | B4 |
| no recognition | B5 |
| no recognition | B6 |

Target: T9, EPAS (peptide code EPAS-001) peptide on …
Experiment: cytokine release

| binding result | Binder |
| --- | --- |
| no recognition | B1 |
| no recognition | B2 |
| no recognition | B3 |
| no recognition | B4 |
| no recognition | B5 |
| no recognition | B6 |

Target: T10, PSME2 (peptide code PSME2-001) peptide …
Experiment: cytokine release

| binding result | Binder |
| --- | --- |
| no recognition | B1 |
| no recognition | B2 |
| no recognition | B3 |
| no recognition | B4 |
| no recognition | B5 |
| no recognition | B6 |

Target: T11, TMEM175 (peptide code TMEM175-001) …
Experiment: cytokine release

| binding result | Binder |
| --- | --- |
| no recognition | B1 |
| no recognition | B2 |
| no recognition | B3 |
| no recognition | B4 |
| no recognition | B5 |
| no recognition | B6 |
